Target: SP-Dis-PyCter (Dis-PyCter carrying an amino terminal ER-translocation signal from D. discoideum PsA) (UniProt P02886)
Sequence (P02886 other isoform, or with tags, fused parts or gaps): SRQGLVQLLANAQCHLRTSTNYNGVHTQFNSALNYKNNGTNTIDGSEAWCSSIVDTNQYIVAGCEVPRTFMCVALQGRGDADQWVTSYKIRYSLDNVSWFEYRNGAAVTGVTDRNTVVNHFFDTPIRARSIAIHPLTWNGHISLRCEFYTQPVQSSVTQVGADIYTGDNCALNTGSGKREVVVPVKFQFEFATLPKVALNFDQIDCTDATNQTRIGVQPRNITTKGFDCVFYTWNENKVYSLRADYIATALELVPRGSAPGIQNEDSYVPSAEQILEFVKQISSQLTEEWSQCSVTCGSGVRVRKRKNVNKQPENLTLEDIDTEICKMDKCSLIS

Substance: human thrombin
- size of the recombinant protein on Western blot after incubation with increasing thrombin (units/ml): the size of the recombinant protein decreased with increasing thrombin concentrations

Reference: US6482607
